Holding throughout (assay): cAMP activity assay (pCRE β-galactosidase reporter), transfected HEK293T cells
Type in all cases: cell-based

The target of one assay is T1, RXFP1 (Homo sapiens, UniProt Q9HBX9).
T1 construct: transiently transfected human embryonic kidney (HEK) 293T cells expressing full-length RXFP1 and mutants; expressed in transfected cells; host or cells: HEK293T
T1 sequence (Q9HBX9 1-757): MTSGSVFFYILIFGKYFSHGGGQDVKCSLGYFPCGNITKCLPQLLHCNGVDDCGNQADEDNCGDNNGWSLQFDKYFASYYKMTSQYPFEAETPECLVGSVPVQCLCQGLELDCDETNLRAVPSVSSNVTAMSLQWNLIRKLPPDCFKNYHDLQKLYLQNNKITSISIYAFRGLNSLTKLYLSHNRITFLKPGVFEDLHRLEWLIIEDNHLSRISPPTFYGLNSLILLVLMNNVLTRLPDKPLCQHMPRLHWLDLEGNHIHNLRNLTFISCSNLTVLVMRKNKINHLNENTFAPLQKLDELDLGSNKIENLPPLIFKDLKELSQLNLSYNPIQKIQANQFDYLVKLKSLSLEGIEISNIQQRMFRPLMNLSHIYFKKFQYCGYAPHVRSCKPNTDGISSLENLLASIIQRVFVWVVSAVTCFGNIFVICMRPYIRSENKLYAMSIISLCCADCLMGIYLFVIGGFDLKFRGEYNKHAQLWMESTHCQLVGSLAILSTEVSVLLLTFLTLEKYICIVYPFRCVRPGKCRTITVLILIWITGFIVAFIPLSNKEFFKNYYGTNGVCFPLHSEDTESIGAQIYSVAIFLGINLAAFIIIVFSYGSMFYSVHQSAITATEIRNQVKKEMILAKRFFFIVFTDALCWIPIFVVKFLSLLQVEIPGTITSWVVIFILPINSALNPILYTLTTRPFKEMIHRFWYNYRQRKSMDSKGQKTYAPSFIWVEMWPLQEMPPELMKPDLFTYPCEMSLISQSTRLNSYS
To be noted: construct RXFP1 (wild type), ±s.e.m. Put shortly: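 Relaxin-stimulated cells go through overnight storage at −80 °C, two 10-min lysis steps at pH 8.0 with shaking, and chlorophenol red-β-D-galactopyranoside development. Output at 570 nm is scaled against the 5 μM Forskolin maximum.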

The target in another assay is T2, RXFP1 E67A^ins (Homo sapiens, UniProt Q9HBX9, INS89A).
T2 construct: transiently transfected human embryonic kidney (HEK) 293T cells expressing full-length RXFP1 and mutants; expressed in transfected cells; host or cells: HEK293T
T2 sequence (Q9HBX9 with tags, fused parts or gaps INS89A limits assumed): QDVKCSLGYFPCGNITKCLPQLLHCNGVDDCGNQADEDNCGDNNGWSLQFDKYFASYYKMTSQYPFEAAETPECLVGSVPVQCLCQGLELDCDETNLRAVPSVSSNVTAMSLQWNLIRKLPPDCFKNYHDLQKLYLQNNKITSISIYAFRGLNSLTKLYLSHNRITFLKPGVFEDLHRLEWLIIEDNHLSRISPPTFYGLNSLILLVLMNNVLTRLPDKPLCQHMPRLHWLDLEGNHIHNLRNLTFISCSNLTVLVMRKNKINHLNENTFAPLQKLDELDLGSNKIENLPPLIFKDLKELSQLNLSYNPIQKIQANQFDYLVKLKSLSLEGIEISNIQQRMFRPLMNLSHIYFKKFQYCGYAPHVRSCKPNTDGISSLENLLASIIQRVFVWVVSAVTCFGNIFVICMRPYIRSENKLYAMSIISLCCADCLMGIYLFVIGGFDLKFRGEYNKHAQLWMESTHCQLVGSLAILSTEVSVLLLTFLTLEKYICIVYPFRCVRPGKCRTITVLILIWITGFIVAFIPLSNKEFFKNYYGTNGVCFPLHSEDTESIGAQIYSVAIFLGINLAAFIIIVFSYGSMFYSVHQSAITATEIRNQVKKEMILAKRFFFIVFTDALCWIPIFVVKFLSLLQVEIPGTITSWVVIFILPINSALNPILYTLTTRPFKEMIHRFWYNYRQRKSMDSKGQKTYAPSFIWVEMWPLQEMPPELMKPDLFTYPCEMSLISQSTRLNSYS
To be noted: construct E67A^ins, ±s.e.m. Put shortly:
(§1)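 Receptor signalling is measured as CRE-driven β-galactosidase activity after H2 relaxin exposure, using a colorimetric substrate read at 570 nm. Values are normalised to 5 μM Forskolin, pooled from at least three independent triplicate experiments.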

The next assay addresses T3, RXFP1 Y57A (Homo sapiens, UniProt Q9HBX9, Y79A).
T3 construct: cells expressing full-length RXFP1 and mutants; expressed in transfected cells; host or cells: HEK293T
T3 sequence (Q9HBX9 23-757 Y79A limits assumed): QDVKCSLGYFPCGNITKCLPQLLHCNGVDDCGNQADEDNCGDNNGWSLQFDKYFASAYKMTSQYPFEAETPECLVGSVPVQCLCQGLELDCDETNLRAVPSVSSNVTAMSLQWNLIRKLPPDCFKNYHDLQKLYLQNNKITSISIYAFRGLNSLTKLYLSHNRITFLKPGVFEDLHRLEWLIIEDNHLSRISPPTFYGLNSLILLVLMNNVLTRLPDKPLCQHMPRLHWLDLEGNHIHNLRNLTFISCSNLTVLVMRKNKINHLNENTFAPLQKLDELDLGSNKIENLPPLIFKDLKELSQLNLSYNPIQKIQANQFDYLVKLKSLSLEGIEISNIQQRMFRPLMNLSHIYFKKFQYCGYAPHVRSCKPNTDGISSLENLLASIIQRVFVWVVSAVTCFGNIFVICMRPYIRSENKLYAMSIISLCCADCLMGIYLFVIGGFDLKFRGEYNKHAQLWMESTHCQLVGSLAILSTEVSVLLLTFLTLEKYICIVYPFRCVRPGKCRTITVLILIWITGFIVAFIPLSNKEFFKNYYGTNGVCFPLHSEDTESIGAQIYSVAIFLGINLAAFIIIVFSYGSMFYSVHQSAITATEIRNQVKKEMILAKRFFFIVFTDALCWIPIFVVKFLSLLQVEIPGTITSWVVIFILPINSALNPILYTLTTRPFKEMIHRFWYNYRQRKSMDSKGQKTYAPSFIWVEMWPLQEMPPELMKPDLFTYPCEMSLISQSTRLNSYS
Particulars: construct Y57A, ±s.e.m. Put shortly:
as §1

Setting [1] is: percentage of maximum response to 5 μM Forskolin.

As for “H2 relaxin: two-chain 6-kDa peptide hormone structurally related to insulin; recombinant human gene-2 H2 relaxin provided by Corthera”, the “H2 relaxin pEC50” value in the assay with RXFP1 (cAMP reporter) is listed as 10.97±0.05 (6); with RXFP1 E67A^ins (cAMP reporter), 11.32±0.04 (3); with RXFP1 Y57A (cAMP reporter) it was 10.93±0.10 (5). Also, the “H2 relaxin Emax” value was 116.3±4.2 (6) % in the assay with RXFP1 (setting [1]), 110.15±6.43(3) % with RXFP1 E67A^ins (setting [1]) and 126.7±8.46 (5) % with RXFP1 Y57A (setting [1]).

(Values after article PMC4837482, “The complex binding mode of the peptide hormone H2 relaxin to its receptor RXFP1” (Nature Communications, 2016).)
